The target of this assay is T1, hPASK PAS-A domain (residues 131–237) (human, UniProt Q96RG2 131-237, uniformly 15N-labeled).
T1 sequence (looked up): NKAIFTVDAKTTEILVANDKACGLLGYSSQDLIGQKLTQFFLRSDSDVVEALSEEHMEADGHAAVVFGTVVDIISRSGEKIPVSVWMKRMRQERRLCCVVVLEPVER
Kind of assay: NMR titration.

Kd data for 1 molecule are collected here from article PMC10922792 (Journal of molecular biology, 2024).

Consider MRGAAGLQREIQEGAYSGSCYHRDGL (peptide, UniProt Q96RG2 879-904, looked up) [PIM peptide (PASK AA 879–904)], for which binding was put at a Kd of 2400 µM.
